How the values were obtained:
AXOL ARE-hepatocytes = test: Luciferase expression from PBREM promoters in AXOL ARE-hepatocytes, induction by CITCO; format: cell-based, human; conditions: 1 μM CITCO
CD1 male mice = test: In vivo bioluminescence imaging of mice injected with AAV9 constructs, induction by phenobarbital
Method: • Seed HEK 293-AAV cells in 15 cm plates. To be 70-80% confluent on the day of transfection • Final volume on each plate: 15 ml Day 2: Prepare Transfection Mix: • DNA mix/plate: pDG9 (Packaging plasmid for AAV9): 10.5 μg/pHGTI (Ad. Helper plasmid): 31.5 μg/Vector plasmid: 10.5 μg/Prepare in serum free DMEM/Optimem • Transfer mix/plate: PEI: 125 μl/Prepare in serum free DMEM/Optimem • Add DNA mix into transfection mix. Mix and leave at room temperature for 15-20 mins. • Add 3 ml of transfection mix to each plate drop-wise and gently distribute. Incubate for 24 h. Day 3: • Replace media with 15 ml DMEM supplemented with P/S and 2% FCS. Leave for 48 h. Day 5: • Collect supernatant and pool in 50 ml tubes, 25 ml each tube. Store at −20° C. • Collect cells: Add 5 ml of PBS to each plate→scrape and collect in 50 ml tubes. • To wash plates, add another 1 ml of PBS and collect. • Spin at 1500 rpm for 5 mins. • Remove supernatant and resuspend pelleted cells in 1 ml/plate TD lysis buffer→pool • Store at −80′C. Endonuclease Treatment Cells: • Freeze and thaw pellets 5 times→˜20 mins at 37° C. then ˜20 mins in dry ice (or −80° C.). • Add 25 μl/ml cells of 20% Deoxycholate (or 50 μl/ml of 10% Deoxycholate). • Add 8 μl/ml cells of benzonase. • Incubate at 37° C. for 30 mins. • Spin at 4 Krpm for 30 mins. • Filter supernatant using […] filters. • Store at 4° C. for up to 24 h. Supernatant: • Add 2.5 μl/25 ml supernatant of benzonase. • Add 50 μl/25 ml supernatant of MgSO4. • Incubate at 37° C. for 30 mins. • Spin at 4 Krpm for 30 mins. • Filter supernatant using […] filters. • Store at 4′C for up to 24 h. Hplc Purification • Place both lines in 20% ETOH→template→system wash • Put line A in PBS and line B in Glycine→template→system wash • Place the column in the machine→manual run→flowrate: 5 ml/min→Run for 25 ml or until the UV line is flat. • Prepare FACS tubes (10 for cells and more for supernatant): add 30 μl/tube Tris→put in the machine to collect vectors. • Place the waste lines in a separate tube to be able to run them again through the column. • Run samples (flowrate low, depending on how fast the system and how concentrated the sample is; for cells it is slower, for supernatant it is higher). • After running the waste through the column, wash with PBS→flowrate: 5 ml/min until the UV line is flat. • Set→fraction size: 1 ml; Flowrate: 1 ml/min; concentration % B: 100%→run. • Start collecting: Look for the peak. The peak indicates vector purification. Mark the tubes containing these vectors. • Save programme before exiting. • Wash with PBS→75 ml, 5 ml/min • Wash with Na3PO4 (to store the column in)→75 ml, 5 ml/min • Remove column and store at 4° C. • Wash the machine with PBS→template→system wash • Wash the machine with 20% ETOH→template→system wash • Put both lines in 20% ETOH and shut down • Add 2 L of PBS into a big bucket and put the Dialysis cassette (Side-A-Lyzer; Thermo scientific) to prime. • Collect the vectors from the marked FACS tubes using a syringe and needle and add into the dialysis cassette→remove excess air from the membrane, carefully place the rubber on top of the cassette and let it float in the PBS-containing bucket→leave over night at room temperature on a slow rotating rotor. Next Day: • Prime membrane by adding 5 ml PBS onto a centrifugal filter (Amico Ultra 15; MERCK)→spin for 5 mins at 4 Krpm • Remove excess PBS from inside the membrane. • Take vectors out from the cassette and load onto the membrane→spin for 5 mins at 4 Krpm • Wash the membrane with the vectors inside few times, then collect into 2 ml centrifuge tube filter 0.22 μM (Spin-X; COSTAR) • Spin for 3 mins at 13 Krpm. • Remove filter and aliquot: 1×100 μl (for injection), the rest in 10-2 μl aliquots. • Store in −80° C. • Virus quantification was performed using qRT-PCR with primers and probes for the luciferase gene. Mice Experiment […]

[1] = tested on: Huh7 and ARE primary cells; test: Effect of AAV ITRs: pAAV constructs transfected into Huh7 and ARE primary cells, compared with pGL4.10; format: cell-based, human; conditions: mean of 3 biological replicates
Source text: Following from Example 3, it was decided to take PB1-MinTK and PB1-2-MinTk forward for in vivo studies. To facilitate this the two aforementioned constructs were cloned into pAAV vector (Takara, Clontech) to allow for the preparation of AAV viruses. The inserts where cloned using restriction digest of the pAAV plasmid and PCR amplification of the original pGL4.10 constructs.
We investigated the effect of the Inverted Terminal Repeats (ITRs) on the activity of the promoters. This was done as we have observed interference from the AAV ITRs in other projects. To this end, the pAAV-PB1-MinTk and pAAV-PB1-2-MinTk were transfected into Huh7 and ARE primary cells as previously described and their activity assessed.

[2] = AAV9, phenobarbital intraperitoneally

B1: PB1-MinTK: promoter: single mouse PBREM element and MinTK minimal promoter, SEQ ID NO: 7 (nucleic acid)
DNA: TCTGTACTTTCCTGACCTTGGCACAGTGCCACCATCAACTTGCCTGACACCGATCCGGCCCCGCCCAGCGTCTTGTCATTGGCGAATTCGAACACGCAGATGCAGTCGGGGCGGCGCGGTCCGAGGTCCACTTCGCATATTAAGGTGACGCGTGTGGCCTCGAACACCGAGCGACCCTGCAGCGACCCGCTTAACAGCGTCAACAGCGTGCCGCAGATCTCGAGGAGCTTGGCGAGATTTTCAGGAGCTAAGGAAGCTAAAC
modifications: PB1-MinTK
Question: B1 was tested. Which “expression level compared to CMV-IE” value (AXOL ARE-hepatocytes) did it give?
Answer: 20%

Question: And the “induction of luciferase expression” value (AXOL ARE-hepatocytes; readout 24 hrs after induction)?
Answer: around 7 fold

Question: And the “luciferase expression before induction” value (CD1 male mice; 0 hrs)?
Answer: no expression of the luciferase gene

Question: And the “time at which induction is complete” value (CD1 male mice; [2])?
Answer: 24 h

Question: And the “time of maximal activity after induction” value (CD1 male mice; [2])?
Answer: 9 h

Question: And the “tissue distribution of luciferase expression” value (CD1 male mice; AAV9 via tail vein)?
Answer: confined to the liver

Question: And the “induction of luciferase expression across pGL4.10 and pAAV vectors and cell types” value [1]?
Answer: comparable across vectors and cell types

From patent US12472269B2, “Liver-specific inducible promoters and methods of use thereof” (ASKBIO INC., priority 2019, dated 2025)
